One block for each molecule: values may come before it.
How the values were obtained:
[1] = molecular target: mouse protocadherin-15 EC1+2 R113G (mouse) (UniProt Q99PJ1); experiment: ITC
[2] = molecular target: mouse protocadherin-15 EC1+2 I22A (mouse, UniProt Q99PJ1-18 27-259, I22A); experiment: ITC
[3] = molecular target: T1, mouse protocadherin-15 EC1+2 (mouse, UniProt Q99PJ1-18 27-259); experiment: ITC
[4] = molecular target: T1, mouse protocadherin-15 EC1+2; experiment: crystal structure

B1: mouse cadherin-23 EC1+2 (domain or fragment)
chain: MQVNRLPFFTNHFFDTYLLISEDTPVGSSVTQLLARDMDNDPLVFGVSGEEASRFFAVEPDTGVVWLRQPLDRETKSEFTVEFSVSDHQGVITRKVNIQVGDVNDNAPTFHNQPYSVRIPENTPVGTPIFIVNATDPDLGAGGSVLYSFQPPSPFFAIDSARGIVTVIQELDYEVTQAYQLTVNATDQDKTRPLSTLANLAIIITD
Kd [2]: > 100 µM | Kd [3]: 2.9 µM | dH [3]: 7.08 kcal/mol | stoichiometry N [3]: 0.88

B3: mouse cadherin-23 EC1+2 S47P (domain or fragment)
chain: MQVNRLPFFTNHFFDTYLLISEDTPVGSSVTQLLARDMDNDPLVFGVPGEEASRFFAVEPDTGVVWLRQPLDRETKSEFTVEFSVSDHQGVITRKVNIQVGDVNDNAPTFHNQPYSVRIPENTPVGTPIFIVNATDPDLGAGGSVLYSFQPPSPFFAIDSARGIVTVIQELDYEVTQAYQLTVNATDQDKTRPLSTLANLAIIITD
binding result [4]: binds

More lines, now with the values ahead:

Kd [1]: > 20 µM
Molecule: mouse cadherin-23 EC1+2 (from UniProt Q99PF4 24-228) (domain or fragment)

Kd [3]: > 30 µM
B2: mouse cadherin-23 EC1+2 L145G (domain or fragment)
chain: MQVNRLPFFTNHFFDTYLLISEDTPVGSSVTQLLARDMDNDPLVFGVSGEEASRFFAVEPDTGVVWLRQPLDRETKSEFTVEFSVSDHQGVITRKVNIQVGDVNDNAPTFHNQPYSVRIPENTPVGTPIFIVNATDPDLGAGGSVGYSFQPPSPFFAIDSARGIVTVIQELDYEVTQAYQLTVNATDQDKTRPLSTLANLAIIITD
